Assay results reported in publication doi:10.1101/411223 (bioRxiv, 2018).

T1: Kap114p (Δ899-956) (S. cerevisiae, UniProt P53067 1-1004, Δ899-956)
T1 sequence (looked up): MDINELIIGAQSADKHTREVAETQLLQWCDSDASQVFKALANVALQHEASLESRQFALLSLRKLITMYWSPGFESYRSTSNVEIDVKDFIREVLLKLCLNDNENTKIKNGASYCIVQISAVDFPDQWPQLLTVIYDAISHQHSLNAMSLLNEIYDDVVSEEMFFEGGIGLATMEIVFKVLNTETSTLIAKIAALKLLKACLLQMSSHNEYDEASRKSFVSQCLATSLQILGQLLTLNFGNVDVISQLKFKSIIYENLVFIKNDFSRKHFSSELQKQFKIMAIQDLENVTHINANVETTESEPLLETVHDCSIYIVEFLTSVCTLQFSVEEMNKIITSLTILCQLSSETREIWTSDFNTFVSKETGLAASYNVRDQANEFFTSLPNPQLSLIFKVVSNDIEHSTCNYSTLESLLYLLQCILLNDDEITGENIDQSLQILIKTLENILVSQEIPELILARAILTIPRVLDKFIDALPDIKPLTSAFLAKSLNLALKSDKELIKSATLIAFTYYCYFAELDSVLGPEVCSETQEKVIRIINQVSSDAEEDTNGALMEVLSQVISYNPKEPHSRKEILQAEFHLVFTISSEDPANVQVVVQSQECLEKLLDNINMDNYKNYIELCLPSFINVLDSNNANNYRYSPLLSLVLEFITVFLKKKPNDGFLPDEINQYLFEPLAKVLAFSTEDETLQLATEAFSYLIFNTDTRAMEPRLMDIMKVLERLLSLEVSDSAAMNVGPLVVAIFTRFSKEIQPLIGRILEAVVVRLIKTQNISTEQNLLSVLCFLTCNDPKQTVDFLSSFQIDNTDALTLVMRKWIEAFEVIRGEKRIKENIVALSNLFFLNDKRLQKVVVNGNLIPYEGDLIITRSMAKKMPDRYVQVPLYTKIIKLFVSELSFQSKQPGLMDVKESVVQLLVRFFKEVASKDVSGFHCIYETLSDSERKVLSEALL

T2: Kap114p (Δ347-371) (S. cerevisiae, UniProt P53067 1-1004, Δ347-371)
T2 sequence (looked up): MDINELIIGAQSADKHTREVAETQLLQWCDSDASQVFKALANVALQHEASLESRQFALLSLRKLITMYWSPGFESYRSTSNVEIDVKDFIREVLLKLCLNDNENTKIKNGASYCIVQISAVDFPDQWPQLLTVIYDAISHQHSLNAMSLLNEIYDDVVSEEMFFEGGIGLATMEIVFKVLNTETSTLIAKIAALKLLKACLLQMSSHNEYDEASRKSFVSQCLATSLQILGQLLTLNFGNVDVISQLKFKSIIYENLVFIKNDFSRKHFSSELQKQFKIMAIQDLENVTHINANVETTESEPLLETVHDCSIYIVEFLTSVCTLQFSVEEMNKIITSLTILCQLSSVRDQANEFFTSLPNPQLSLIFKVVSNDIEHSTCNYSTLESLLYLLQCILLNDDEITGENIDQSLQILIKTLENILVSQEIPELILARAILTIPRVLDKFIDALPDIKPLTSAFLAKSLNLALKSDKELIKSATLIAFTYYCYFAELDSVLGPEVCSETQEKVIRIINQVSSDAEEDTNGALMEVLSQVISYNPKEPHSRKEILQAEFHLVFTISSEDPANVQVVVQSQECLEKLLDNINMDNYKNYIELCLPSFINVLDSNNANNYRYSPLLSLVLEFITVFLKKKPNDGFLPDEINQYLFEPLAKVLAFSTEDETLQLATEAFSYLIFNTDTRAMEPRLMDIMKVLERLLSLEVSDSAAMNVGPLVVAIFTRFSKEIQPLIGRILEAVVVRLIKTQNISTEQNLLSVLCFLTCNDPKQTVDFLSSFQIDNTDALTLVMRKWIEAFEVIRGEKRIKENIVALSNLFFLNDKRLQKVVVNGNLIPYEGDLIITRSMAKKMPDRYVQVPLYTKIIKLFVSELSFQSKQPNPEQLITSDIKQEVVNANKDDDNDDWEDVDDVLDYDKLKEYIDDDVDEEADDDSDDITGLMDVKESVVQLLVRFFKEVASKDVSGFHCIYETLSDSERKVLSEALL


What was measured:
[1] = target: His-tagged RanQ69L, P62826; assay: SEC; conditions: remark: other sources report otherwise
Kap114p (Δ899-956) = target: T1, Kap114p (Δ899-956); assay: pull-down
Kap114p (Δ347-371) = target: T2, Kap114p (Δ347-371); assay: pull-down

| stoichiometry N [1] | binding result (Kap114p (Δ899-956)) | binding result (Kap114p (Δ347-371)) | Binder |
| --- | --- | --- | --- |
| 1 | – | – | Kap114p, P53067 1-1004 (natural protein) MDINELIIGAQSADKHTREVAETQLLQWCDSDASQVFKALANVALQHEASLESRQFALLSLRKLITMYWSPGFESYRSTSNVEIDVKDFIREVLLKLCLNDNENTKIKNGASYCIVQISAVDFPDQWPQLLTVIYDAISHQHSLNAMSLLNEIYDDVVSEEMFFEGGIGLATMEIVFKVLNTETSTLIAKIAALKLLKACLLQMSSHNEYDEASRKSFVSQCLATSLQILGQLLTLNFGNVDVISQLKFKSIIYENLVFIKNDFSRKHFSSELQKQFKIMAIQDLENVTHINANVETTESEPLLETVHDCSIYIVEFLTSVCTLQFSVEEMNKIITSLTILCQLSSETREIWTSDFNTFVSKETGLAASYNVRDQANEFFTSLPNPQLSLIFKVVSNDIEHSTCNYSTLESLLYLLQCILLNDDEITGENIDQSLQILIKTLENILVSQEIPELILARAILTIPRVLDKFIDALPDIKPLTSAFLAKSLNLALKSDKELIKSATLIAFTYYCYFAELDSVLGPEVCSETQEKVIRIINQVSSDAEEDTNGALMEVLSQVISYNPKEPHSRKEILQAEFHLVFTISSEDPANVQVVVQSQECLEKLLDNINMDNYKNYIELCLPSFINVLDSNNANNYRYSPLLSLVLEFITVFLKKKPNDGFLPDEINQYLFEPLAKVLAFSTEDETLQLATEAFSYLIFNTDTRAMEPRLMDIMKVLERLLSLEVSDSAAMNVGPLVVAIFTRFSKEIQPLIGRILEAVVVRLIKTQNISTEQNLLSVLCFLTCNDPKQTVDFLSSFQIDNTDALTLVMRKWIEAFEVIRGEKRIKENIVALSNLFFLNDKRLQKVVVNGNLIPYEGDLIITRSMAKKMPDRYVQVPLYTKIIKLFVSELSFQSKQPNPEQLITSDIKQEVVNANKDDDNDDWEDVDDVLDYDKLKEYIDDDVDEEADDDSDDITGLMDVKESVVQLLVRFFKEVASKDVSGFHCIYETLSDSERKVLSEALL |
| – | binds | binds | GST-fused yTBP (61-240) (domain or fragment, S. cerevisiae, UniProt P13393 61-240, looked up) SGIVPTLQNIVATVTLGCRLDLKTVALHARNAEYNPKRFAAVIMRIREPKTTALIFASGKMVVTGAKSEDDSKLASRKYARIIQKIGFAAKFTDFKIQNIVGSCDVKFPIRLEGLAFSHGTFSSYEPELFPGLIYRMVKPKIVLLIFVSGKIVLTGAKQREEIYQAFEAIYPVLSEFRKM |
